Test results reported in the supplement of paper PMC5998384.

Columns and labels:
HeLa Kyoto [1] = assay: solubility change mitosis vs G1/S (difference of NP-40 vs SDS log2 ratios) (log2 ratio difference); higher = more soluble in mitosis
HeLa Kyoto [2] = assay: solubility in G1/S (NP-40 vs SDS abundance) (log2 ratio); higher = more soluble; conditions: cell cycle stage: G1/S
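For solubility change mitosis vs G1/S (difference of NP-40 vs SDS log2 ratios) in this document: synchronized HeLa Kyoto cells (double thymidine block for G1/S, nocodazole release for mitosis), protein amounts in NP-40 versus SDS lysates quantified by mass spectrometry, three biological replicates.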
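For solubility in G1/S (NP-40 vs SDS abundance) in this document: HeLa Kyoto cells arrested at G1/S by double thymidine block, proteins quantified by TMT10plex mass spectrometry in mild NP-40 versus SDS extracts, three biological replicates.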

Substance	solubility change mitosis (log2) (HeLa Kyoto [1])	solubility in G1/S (log2) (HeLa Kyoto [2])
MESRDHNNPQEGPTSSSGRRAAVEDNHLLIKAVQNEDVDLVQQLLEGGANVNFQEEEGGWTPLHNAVQMSREDIVELLLRHGADPVLRKKNGATPFILAAIAGSVKLLKLFLSKGADVNECDFYGFTAFMEAAVYGKVKALKFLYKRGANVNLRRKTKEDQERLRKGGATALMDAAEKGHVEVLKILLDEMGADVNACDNMGRNALIHALLSSDDSDVEAITHLLLDHGADVNVRGERGKTPLILAVEKKHLGLVQRLLEQEHIEINDTDSDGKTALLLAVELKLKKIAELLCKRGASTDCGDLVMTARRNYDHSLVKVLLSHGAKEDFHPPAEDWKPQSSHWGAALKDLHRIYRPMIGKLKFFIDEKYKIADTSEGGIYLGFYEKQEVAVKTFCEGSPRAQREVSCLQSSRENSHLVTFYGSESHRGHLFVCVTLCEQTLEACLDVHRGEDVENEEDEFARNVLSSIFKAVQELHLSCGYTHQDLQPQNILIDSKKAAHLADFDKSIKWAGDPQEVKRDLEDLGRLVLYVVKKGSISFEDLKAQSNEEVVQLSPDEETKDLIHRLFHPGEHVRDCLSDLLGHPFFWTWESRYRTLRNVGNESDIKTRKSESEILRLLQPGPSEHSKSFDKWTTKINECVMKKMNKFYEKRGNFYQNTVGDLLKFIRNLGEHIDEEKHKKMKLKIGDPSLYFQKTFPDLVIYVYTKLQNTEYRKHFPQTHSPNKPQCDGAGGASGLASPGC [RNASEL]	-0.0377	-0.104
DDX60	-0.0365	-0.517
MAAAAASGAGGAAGAGTGGAGPAGRLLPPPAPGSPAAPAAVSPAAGQPRPPAPASRGPMPARIGYYEIDRTIGKGNFAVVKRATHLVTKAKVAIKIIDKTQLDEENLKKIFREVQIMKMLCHPHIIRLYQVMETERMIYLVTEYASGGEIFDHLVAHGRMAEKEARRKFKQIVTAVYFCHCRNIVHRDLKAENLLLDANLNIKIADFGFSNLFTPGQLLKTWCGSPPYAAPELFEGKEYDGPKVDIWSLGVVLYVLVCGALPFDGSTLQNLRARVLSGKFRIPFFMSTECEHLIRHMLVLDPNKRLSMEQICKHKWMKLGDADPNFDRLIAECQQLKEERQVDPLNEDVLLAMEDMGLDKEQTLQSLRSDAYDHYSAIYSLLCDRHKRHKTLRLGALPSMPRALAFQAPVNIQAEQAGTAMNISVPQVQLINPENQIVEPDGTLNLDSDEGEEPSPEALVRYLSMRRHTVGVADPRTEVMEDLQKLLPGFPGVNPQAPFLQVAPNVNFMHNLLPMQNLQPTGQLEYKEQSLLQPPTLQLLNGMGPLGRRASDGGANIQLHAQQLLKRPRGPSPLVTMTPAVPAVTPVDEESSDGEPDQEAVQSSTYKDSNTLHLPTERFSPVRRFSDGAASIQAFKAHLEKMGNNSSIKQLQQECEQLQKMYGGQIDERTLEKTQQQHMLYQQEQHHQILQQQIQDSICPPQPSPPLQAACENQPALLTHQLQRLRIQPSSPPPNHPNNHLFRQPSNSPPPMSSAMIQPHGAASSSQFQGLPSRSAIFQQQPENCSSPPNVALTCLGMQQPAQSQQVTIQVQEPVDMLSNMPGTAAGSSGRGISISPSAGQMQMQHRTNLMATLSYGHRPLSKQLSADSAEAHSLNVNRFSPANYDQAHLHPHLFSDQSRGSPSSYSPSTGVGFSPTQALKVPPLDQFPTFPPSAHQQPPHYTTSALQQALLSPTPPDYTRHQQVPHILQGLLSPRHSLTGHSDIRLPPTEFAQLIKRQQQQRQQQQQQQQQQEYQELFRHMNQGDAGSLAPSLGGQSMTERQALSYQNADSYHHHTSPQHLLQIRAQECVSQASSPTPPHGYAHQPALMHSESMEEDCSCEGAKDGFQDSKSSSTLTKGCHDSPLLLSTGGPGDPESLLGTVSHAQELGIHPYGHQPTAAFSKNKVPSREPVIGNCMDRSSPGQAVELPDHNGLGYPARPSVHEHHRPRALQRHHTIQNSDDAYVQLDNLPGMSLVAGKALSSARMSDAVLSQSSLMGSQQFQDGENEECGASLGGHEHPDLSDGSQHLNSSCYPSTCITDILLSYKHPEVSFSMEQAGV [SIK3]	0.04	-0.387
SHPRH	0.00438	-0.418
MSLRRHIGNPEYLMKRIPQNPRYQHIKSRLDTGNSMTKYTEKLEEIKKNYRYKKDELFKRLKVTTFAQLIIQVASLSDQTLEVTAEEIQRLEDNDSAASDPDAETTARTNGKGNPGEQSPSPEQFINNAGAGDSSRSTLQSVISGVGELDLDKGPVKKAEPHTKDKPYPDCPFLLLDVRDRDSYQQCHIVGAYSYPIATLSRTMNPYSNDILEYKNAHGKIIILYDDDERLASQAATTMCERGFENLFMLSGGLKVLAQKFPEGLITGSLPASCQQALPPGSARKRSSPKGPPLPAENKWRFTPEDLKKIEYYLEEEQGPADHPSRLNQANSSGRESKVPGARSAQNLPGGGPASHSNPRSLSSGHLQGKPWK [CEP41]	0.231	0.311
MVPPVQVSPLIKLGRYSALFLGVAYGATRYNYLKPRAEEERRIAAEEKKKQDELKRIARELAEDDSILK [ATP5I]	0.197	-0.147
MRLRNGTFLTLLLFCLCAFLSLSWYAALSGQKGDVVDVYQREFLALRDRLHAAEQESLKRSKELNLVLDEIKRAVSERQALRDGDGNRTWGRLTEDPRLKPWNGSHRHVLHLPTVFHHLPHLLAKESSLQPAVRVGQGRTGVSVVMGIPSVRREVHSYLTDTLHSLISELSPQEKEDSVIVVLIAETDSQYTSAVTENIKALFPTEIHSGLLEVISPSPHFYPDFSRLRESFGDPKERVRWRTKQNLDYCFLMMYAQSKGIYYVQLEDDIVAKPNYLSTMKNFALQQPSEDWMILEFSQLGFIGKMFKSLDLSLIVEFILMFYRDKPIDWLLDHILWVKVCNPEKDAKHCDRQKANLRIRFKPSLFQHVGTHSSLAGKIQKLKDKDFGKQALRKEHVNPPAEVSTSLKTYQHFTLEKAYLREDFFWAFTPAAGDFIRFRFFQPLRLERFFFRSGNIEHPEDKLFNTSVEVLPFDNPQSDKEALQEGRTATLRYPRSPDGYLQIGSFYKGVAEGEVDPAFGPLEALRLSIQTDSPVWVILSEIFLKKAD [MGAT4B]	-0.107	0.0108
MAEPGEGLPEEVLALIFRHLSLRDRAAAARVCRAWAAAATCSAVWHDTKISCECELEGMLPPYLSACLDHIHNLRLEFEPSRKPSRRAAIELLMVLAGRAPGLRGLRLECRGEKPLFDAGRDVLEAVHAVCGAASQLRHLDLRRLSFTLDDALVLQAARSCPELHSLFLDNSTLVGSVGPGSVLELLEACPRLRALGLHLASLSHAILEALAAPDRAPFALLALRCACPEDARASPLPNEAWVALRRRHPGLAVELELEPALPAESVTRVLQPAVPVAALRLNLSGDTVGPVRFAAHHYAATLCALEVRAAASAELNAALEELAARCAALREVHCFCVVSHSVLDAFRAHCPRLRTYTLKLTREPHPWRPTLVA [FBXL8]	-0.0843	-0.196
ZFYVE26	-0.0176	0.0351
MRAPIPEPKPGDLIEIFRPFYRHWAIYVGDGYVVHLAPPSEVAGAGAASVMSALTDKAIVKKELLYDVAGSDKYQVNNKHDDKYSPLPCSKIIQRAEELVGQEVLYKLTSENCEHFVNELRYGVARSDQVRDVIIAASVAGMGLAAMSLIGVMFSRNKRQKQ [PLA2G16]	-0.137	0.0787
MAEGSRGGPTCSGVGGRQDPVSGSGGCNFPEYELPELNTRAFHVGAFGELWRGRLRGAGDLSLREPPASALPGSQAADSDREDAAVARDLDCSLEAAAELRAVCGLDKLKCLEDGEDPEVIPENTDLVTLGVRKRFLEHREETITIDRACRQETFVYEMESHAIGKKPENSADMIEEGELILSVNILYPVIFHKHKEHKPYQTMLVLGSQKLTQLRDSIRCVSDLQIGGEFSNTPDQAPEHISKDLYKSAFFYFEGTFYNDKRYPECRDLSRTIIEWSESHDRGYGKFQTARMEDFTFNDLCIKLGFPYLYCHQGDCEHVIVITDIRLVHHDDCLDRTLYPLLIKKHWLWTRKCFVCKMYTARWVTNNDSFAPEDPCFFCDVCFRMLHYDSEGNKLGEFLAYPYVDPGTFN [SNAPC3]	-0.167	-0.0618
TTC28	-0.133	0.0118
MPAPPCASCHAARAALRRPLSGQALCGACFCAAFEAEVLHTVLAGRLLPPGAVVAVGASGGKDSTVLAHVLRALAPRLGISLQLVAVDEGIGGYRDAALAAVRRQAARWELPLTVVAYEDLFGGWTMDAVARSTAGSGRSRSCCTFCGVLRRRALEEGARRVGATHIVTGHNADDMAETVLMNFLRGDAGRLARGGGLGSPGEGGALPRCRPLQFASQKEVVLYAHFRRLDYFSEECVYAPEAFRGHARDLLKRLEAARPSAVLDLVHSAERLALAPAARPPRPGACSRCGALASRALCQACALLDGLNRGRPRLAIGKGRRGLDEEATPGTPGDPARPPASKAVPTF [CTU1]	0.0895	0.107
MFSLKPPKPTFRSYLLPPPQTDDKINSEPKIKKLEPVLLPGEIVVNEVNFVRKCIATDTSQYDLWGKLICSNFKISFITDDPMPLQKFHYRNLLLGEHDVPLTCIEQIVTVNDHKRKQKVLGPNQKLKFNPTELIIYCKDFRIVRFRFDESGPESAKKVCLAIAHYSQPTDLQLLFAFEYVGKKYHNSANKINGIPSGDGGGGGGGGNGAGGGSSQKTPLFETYSDWDREIKRTGASGWRVCSINEGYMISTCLPEYIVVPSSLADQDLKIFSHSFVGRRMPLWCWSHSNGSALVRMALIKDVLQQRKIDQRICNAITKSHPQRSDVYKSDLDKTLPNIQEVQAAFVKLKQLCVNEPFEETEEKWLSSLENTRWLEYVRAFLKHSAELVYMLESKHLSVVLQEEEGRDLSCCVASLVQVMLDPYFRTITGFQSLIQKEWVMAGYQFLDRCNHLKRSEKESPLFLLFLDATWQLLEQYPAAFEFSETYLAVLYDSTRISLFGTFLFNSPHQRVKQSTEFAISKNIQLGDEKGLKFPSVWDWSLQFTAKDRTLFHNPFYIGKSTPCIQNGSVKSFKRTKKSYSSTLRGMPSALKNGIISDQELLPRRNSLILKPKPDPAQQTDSQNSDTEQYFREWFSKPANLHGVILPRVSGTHIKLWKLCYFRWVPEAQISLGGSITAFHKLSLLADEVDVLSRMLRQQRSGPLEACYGELGQSRMYFNASGPHHTDTSGTPEFLSSSFPFSPVGNLCRRSILGTPLSKFLSGAKIWLSTETLANED [MTMR10]	0.00531	-0.147
MPLPEPSEQEGESVKAGQEPSPKPGTDVIPAAPRKPREFSKLVLLTASDQDEDGVGSKPQEVHCVLSLEMAGPATLASTLQILPVEEQGGVVQPALEMPEQKCSKLDAAAPQSLEFLRTPFGGRLLVLESFLYKQEKAVGDKVYWKCRQHAELGCRGRAITRGLRATVMRGHCHAPDEQGLEARRQREKLPSLALPEGLGEPQGPEGPGGRVEEPLEGVGPWQCPEEPEPTPGLVLSKPALEEEEAPRALSLLSLPPKKRSILGLGQARPLEFLRTCYGGSFLVHESFLYKREKAVGDKVYWTCRDHALHGCRSRAITQGQRVTVMRGHCHQPDMEGLEARRQQEKAVETLQAGQDGPGSQVDTLLRGVDSLLYRRGPGPLTLTRPRPRKRAKVEDQELPTQPEAPDEHQDMDADPGGPEFLKTPLGGSFLVYESFLYRREKAAGEKVYWTCRDQARMGCRSRAITQGRRVTVMRGHCHPPDLGGLEALRQREKRPNTAQRGSPGGPEFLKTPLGGSFLVYESFLYRREKAAGEKVYWTCRDQARMGCRSRAITQGRRVMVMRRHCHPPDLGGLEALRQREHFPNLAQWDSPDPLRPLEFLRTSLGGRFLVHESFLYRKEKAAGEKVYWMCRDQARLGCRSRAITQGHRIMVMRSHCHQPDLAGLEALRQRERLPTTAQQEDPEKIQVQLCFKTCSPESQQIYGDIKDVRLDGESQ [FLYWCH1]	0.409	-0.557
